Experimental data from patent publication US20190300618A1 (Merck Sharp & Dohme, published 2019).
Numbering of substitutions follows the chain as printed. Blank lines part the entries; values can stand above or below the molecule they belong to.

What was measured:
Experiment in all cases: flow cytometry, CHO-K1; sub-column 2 of 2
K38A = target: T1, K38A
T1 construct: also called hCD27 K38A
T1 receptor: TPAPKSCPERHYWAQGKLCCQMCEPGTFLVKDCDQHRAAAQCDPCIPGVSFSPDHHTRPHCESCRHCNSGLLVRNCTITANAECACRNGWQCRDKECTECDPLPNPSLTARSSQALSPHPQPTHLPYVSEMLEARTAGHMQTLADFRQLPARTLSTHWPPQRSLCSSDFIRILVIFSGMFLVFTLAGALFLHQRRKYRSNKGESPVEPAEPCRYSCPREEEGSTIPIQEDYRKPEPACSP

F28A = target: T2, F28A
T2 construct: also called hCD27 F28A
T2 receptor: T1 receptor with F28A, A38K

R10A = target: T3, R10A
T3 construct: also called hCD27 R10A
T3 receptor: T1 receptor with R10A, A38K

D32A = target: T4, D32A
T4 construct: also called hCD27 D32A
T4 receptor: T1 receptor with D32A, A38K

R87A = target: T5, R87A
T5 construct: also called hCD27 R87A
T5 receptor: T1 receptor with A38K, R87A

G89A = target: T6, G89A
T6 construct: also called hCD27 G89A
T6 receptor: T1 receptor with A38K, G89A

W13A = target: T7, W13A
T7 construct: also called hCD27 W13A
T7 receptor: T1 receptor with W13A, A38K

P8A = target: T8, P8A
T8 construct: also called hCD27 P8A
T8 receptor: T1 receptor with P8A, A38K

R37A = target: T9, R37A
T9 construct: also called hCD27 R37A
T9 receptor: T1 receptor with R37A, A38K

K17A = target: T10, K17A
T10 construct: also called hCD27 K17A
T10 receptor: T1 receptor with K17A, A38K

% of WT hCD27 binding (geo mean FITC) (K38A): 97.7%
% of WT hCD27 binding (geo mean FITC) (F28A): 60%
% of WT hCD27 binding (geo mean FITC) (R10A): 113%
% of WT hCD27 binding (geo mean FITC) (D32A): 8.7%
% of WT hCD27 binding (geo mean FITC) (R87A): 108%
% of WT hCD27 binding (geo mean FITC) (G89A): 81.8%
% of WT hCD27 binding (geo mean FITC) (W13A): 93.4%
% of WT hCD27 binding (geo mean FITC) (P8A): 79.1%
% of WT hCD27 binding (geo mean FITC) (R37A): 87%
% of WT hCD27 binding (geo mean FITC) (K17A): 6.8%
Molecule: 1A4 (mouse IgG1) (antibody)

% of WT hCD27 binding (geo mean FITC) (K38A): 31.6%
% of WT hCD27 binding (geo mean FITC) (F28A): 58.2%
% of WT hCD27 binding (geo mean FITC) (R10A): 99%
% of WT hCD27 binding (geo mean FITC) (D32A): 66.3%
% of WT hCD27 binding (geo mean FITC) (R87A): 98.8%
% of WT hCD27 binding (geo mean FITC) (G89A): 77.5%
% of WT hCD27 binding (geo mean FITC) (W13A): 86.5%
% of WT hCD27 binding (geo mean FITC) (P8A): 62.2%
% of WT hCD27 binding (geo mean FITC) (R37A): 6.2%
% of WT hCD27 binding (geo mean FITC) (K17A): 106%
Molecule: 9F4 (mouse IgG2a) (antibody)

% of WT hCD27 binding (geo mean FITC) (K38A): 11.8%
% of WT hCD27 binding (geo mean FITC) (F28A): 57.1%
% of WT hCD27 binding (geo mean FITC) (R10A): 108%
% of WT hCD27 binding (geo mean FITC) (D32A): 62.1%
% of WT hCD27 binding (geo mean FITC) (R87A): 111%
% of WT hCD27 binding (geo mean FITC) (G89A): 82.9%
% of WT hCD27 binding (geo mean FITC) (W13A): 88.6%
% of WT hCD27 binding (geo mean FITC) (P8A): 15.9%
% of WT hCD27 binding (geo mean FITC) (R37A): 9.6%
% of WT hCD27 binding (geo mean FITC) (K17A): 126%
B1: Antibody hCD27.131A (mouse parental 131A) (antibody, V domains shown)
VH: QIQLVQSGPELKKPGETVKISCKASGYTFTNYGMNWVKQAPGKGLKWMGWINTNTGEPTYAEEFKGRFAFSLETSATTAYLQINNLKNEDTATYFCAREGDAMDYWGQGTSVTVSS
VL: QIVLTQSPAIMSASPGEKVTMTCSASSSVSYMHWYQQKSGTSPKRWIYDTSKLASGVPARFSGSGSGTSYSLTISSMEAEDAATYYCQQWNSYPFTFGSGTKLEIK
notes: mouse IgG1; also called mouse hCD27.131A
